Kd and maximum leading-strand replication rate in pulse-chase with the yeast replisome (+RFC/PCNA, Polδ omitted) with 180 nM CAF-1 added; ∼1.09 kb/min without CAF-1 data for 5 substances are collected here from article PMC10164577.

The target of test [1] is PCNA K164C, labeled with Alexa Fluor 546 (yeast) (UniProt P15873). As to the kind of experiment: cross-linking; limiting PCNA: 50 nM AF546-PCNA K164C loaded on nicked pUC19 (15 nM) by full-length RFC (15 nM), CAF-1 titrated 0-1 μM, 100-110 mM NaCl; 0.2% glutaraldehyde; nuclease digestion; SDS-PAGE, PCNA fluorescence, band intensities; affinities estimated.
Test [2] concerns the target Histones H3–H4 (H3 C110A-H4 E63C), Alexa488-labeled (Xenopus laevis). As to the kind of experiment: fluorescence polarisation; 10 nM Alexa488-labeled H3–H4 with increasing CAF-1, Polϵ, Polδ or RPA; 25 mM TRIS pH 7.5, 300 mM NaCl, 5% glycerol, 1 mM EDTA, 0.01% IGEPAL, 0.01% CHAPS, 1 mM DTT; one site binding curve. Background: Polarisation of emitted light reports the rotation of a fluorescent probe.

The target in test [3] is PCNA (Saccharomyces cerevisiae) (UniProt P15873). The note with it: cited from earlier work.
The target of test [4] is Proliferating Cell Nuclear Antigen (PCNA), wild type (yeast) (UniProt P15873).
In test [5] the target is PCNA (Saccharomyces cerevisiae) (UniProt P15873). The note with it: cited from earlier work. The source holds these as a separate data set.

Broadly, the Kd is the concentration at which binding is half-saturated.

Like-named read-outs stand apart in the source and are kept apart here.

For “CAF-1_ΔAD mutant (acidic domain deleted) (from UniProt Q12495 1-606; Q04199 1-468; P13712 1-422) (complex)”, the Kd in test [1] is below 0.05 µM. “Chromatin Assembly Factor-1 (CAF-1), wild type (from UniProt Q12495 1-606; Q04199 1-468; P13712 1-422) (complex)” returned a Kd in test [2] of 0.0011 µM. On to “DNA polymerase delta (from UniProt P15436)”, for which the Kd in test [3] was 0.0137 µM. The substance DNA polymerase epsilon (Polϵ) (complex) had a maximum leading-strand replication rate in pulse-chase with the yeast replisome (+RFC/PCNA, Polδ omitted) with 180 nM CAF-1 added; ∼1.09 kb/min without CAF-1 in test [4] of 0.85 kb/min. For the same substance, in test [2], the Kd stood at 0.028 µM. As for “DNA polymerase epsilon (from UniProt P21951)”, in test [5], the Kd was 0.326 µM.
